Assay results published in article PMC4792069.

Target: LAP-tagged hMps1 (LAP-Mps1), stably expressed from a BAC (human) (UniProt P33981)
Assay: fluorescence cross-correlation spectroscopy

UniProt P33981, sequence (P33981 whole entry): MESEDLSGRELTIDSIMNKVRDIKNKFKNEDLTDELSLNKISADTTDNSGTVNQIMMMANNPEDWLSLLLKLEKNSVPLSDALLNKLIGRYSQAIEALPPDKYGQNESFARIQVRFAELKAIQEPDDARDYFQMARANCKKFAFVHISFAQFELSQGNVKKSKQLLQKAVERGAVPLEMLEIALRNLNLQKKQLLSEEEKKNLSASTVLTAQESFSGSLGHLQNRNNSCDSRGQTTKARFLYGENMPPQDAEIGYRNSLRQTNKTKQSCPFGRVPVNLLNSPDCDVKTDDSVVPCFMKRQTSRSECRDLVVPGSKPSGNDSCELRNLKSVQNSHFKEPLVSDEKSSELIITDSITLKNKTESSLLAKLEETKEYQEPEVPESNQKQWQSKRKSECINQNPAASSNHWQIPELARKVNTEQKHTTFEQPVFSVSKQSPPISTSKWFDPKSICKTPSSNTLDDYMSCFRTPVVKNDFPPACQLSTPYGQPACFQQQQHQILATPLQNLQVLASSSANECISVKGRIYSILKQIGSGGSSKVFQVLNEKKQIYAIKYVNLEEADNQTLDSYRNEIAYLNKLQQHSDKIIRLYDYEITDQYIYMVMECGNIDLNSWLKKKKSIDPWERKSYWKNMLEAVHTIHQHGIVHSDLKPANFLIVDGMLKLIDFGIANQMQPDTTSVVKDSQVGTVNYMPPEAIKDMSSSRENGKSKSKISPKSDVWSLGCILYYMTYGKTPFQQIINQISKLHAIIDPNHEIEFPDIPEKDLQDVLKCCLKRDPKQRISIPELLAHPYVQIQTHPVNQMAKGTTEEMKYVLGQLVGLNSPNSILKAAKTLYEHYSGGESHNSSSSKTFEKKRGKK

- normalized cross-correlation (FCCS): 12.4%
Substance: mCherry-tagged ARHGEF17 (ARHGEF17-mCherry), Q96PE2 1-2063
